Laboratory results published in patent US11498974 (BIOARCTIC, dated 2022).

Experiments:
[1] = target: Aβ protofibrils (UniProt P05067); assay: inhibition ELISA; reference: Aβ monomers
[2] = target: recombinant transferrin receptor protein (Sinobiological) (UniProt Q62351); assay: competition TfR ELISA; references: 8D3 and 8D3-F(ab′)2-h158
[3] = target: recombinant transferrin receptor protein (Sinobiological) (UniProt Q62351); assay: competition ELISA on coated recombinant TfR; competitor 2.5 nM biotinylated scFv8D3
[4] = target: recombinant transferrin receptor protein (Sinobiological) (UniProt Q62351); assay: TfR competition ELISA, FIG. 2D; reference: RmAb158-scFv8D3
[5] = target: recombinant transferrin receptor protein (Sinobiological) (UniProt Q62351); assay: competition TfR ELISA; reference: RmAb158-scFv8D3
[6] = target: T1, recombinant transferrin receptor protein (Sinobiological) (UniProt Q62351 89-763, limits assumed); assay: TfR competition ELISA, FIG. 2D; reference: RmAb158-scFv8D3
T1 construct: Construct limits are unknown; also called TfR; recombinant TfR protein
T1 sequence (Q62351 89-763 limits assumed): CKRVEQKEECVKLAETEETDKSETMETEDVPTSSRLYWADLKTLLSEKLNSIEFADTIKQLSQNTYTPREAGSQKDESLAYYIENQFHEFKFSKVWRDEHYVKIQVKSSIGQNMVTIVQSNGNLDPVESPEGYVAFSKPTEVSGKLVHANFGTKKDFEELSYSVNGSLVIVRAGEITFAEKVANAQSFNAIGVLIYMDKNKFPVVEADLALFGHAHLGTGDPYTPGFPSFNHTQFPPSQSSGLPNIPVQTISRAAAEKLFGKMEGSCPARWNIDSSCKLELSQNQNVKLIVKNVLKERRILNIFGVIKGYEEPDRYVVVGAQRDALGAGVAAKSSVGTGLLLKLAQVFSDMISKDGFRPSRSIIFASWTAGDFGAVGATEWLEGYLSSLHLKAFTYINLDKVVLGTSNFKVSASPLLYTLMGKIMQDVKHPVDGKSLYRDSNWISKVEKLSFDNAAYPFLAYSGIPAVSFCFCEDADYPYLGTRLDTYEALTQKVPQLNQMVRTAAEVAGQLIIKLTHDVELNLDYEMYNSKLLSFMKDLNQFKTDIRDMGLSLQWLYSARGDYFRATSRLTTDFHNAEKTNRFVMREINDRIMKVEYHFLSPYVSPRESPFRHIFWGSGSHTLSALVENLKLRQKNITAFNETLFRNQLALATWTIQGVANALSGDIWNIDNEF

[7] = target: T1, recombinant transferrin receptor …; assay: competition ELISA on coated recombinant TfR; competitor 2.5 nM biotinylated scFv8D3

recombinant transferrin receptor protein (Sinobiological) (UniProt Q62351), sequence (Q62351 89-763 limits assumed): as above

RmAb158-scFv8D3 (bispecific antibody) was tested, and the fold stronger binding to protofibrils than to monomers [1] was 500 fold, the fold lower avidity [2] was 10 fold and the Kd [3] was 8 nM.

Molecule “chemically conjugated fusion protein 8D3-F(ab′)2-h158 (bispecific antibody)” has a fold stronger binding [4] of 10 fold and a Kd [3] of 0.69 nM.

Molecule scFv8D3 has a fold higher Kd [5] of 2 fold and a Kd [3] of 15 nM.

B1: anti-TfR antibody 8D3 (antibody, V domains shown)
VH: EVQLVESGGGLVQPGNSLTLSCVASGFTFSNYGMHWIRQAPKKGLEWIAMIYYDSSKMNYADTVKGRFTISRDNSKNTLYLEMNSLRSEDTAMYYCAVPTSHYVVDVWGQGVSVTVSS
VL: DIQMTQSPASLSASLEEIVTITCQASQDIGNWLAWYQQKPGKSPQLLIYGATSLADGVPSRFSGSRSGTQFSLKISRVQVEDIGIYYCLQAYNTPWTFGGGTKLELK
In the case of B1, the fold stronger binding [6] is reported as roughly 10 fold and the Kd [7] is reported as 0.8 nM.
